{"source": "paper PMC10198558", "about": "“CryoEM structure of a post-assembly MS-ring reveals plasticity in stoichiometry and conformation” (PLOS ONE, 2023)", "proteins": {"B1": {"name": "FliF (subunit of the flagellar MS-ring) (natural protein)", "chain": "MSATASTATQPKPLEWLNRLRANPRIPLIVAGSAAVAIVVAMVLWAKTPDYRTLFSNLSDQDGGAIVAQLTQMNIPYRFANGSGAIEVPADKVHELRLRLAQQGLPKGGAVGFELLDQEKFGISQFSEQVNYQRALEGELARTIETLGPVKSARVHLAMPKPSLFVREQKSPSASVTVTLEPGRALDEGQISAVVHLVSSAVAGLPPGNVTLVDQSGHLLTQSNTSGRDLNDAQLKFANDVESRIQRRIEAILSPIVGNGNVHAQVTAQLDFANKEQTEEHYSPNGDASKATLRSRQLNISEQVGAGYPGGVPGALSNQPAPPNEAPIATPPTNQQNAQNTPQTSTSTNSNSAGPRSTQRNETSNYEVDRTIRHTKMNVGDIERLSVAVVVNYKTLADGKPLPLTADQMKQIEDLTREAMGFSDKRGDTLNVVNSPFSAVDNTGGELPFWQQQSFIDQLLAAGRWLLVLVVAWILWRKAVRPQLTRRVEEAKAAQEQAQVRQETEEAVEVRLSKDEQLQQRRANQRLGAEVMSQRIREMSDNDPRVVALVIRQWMSNDHE", "notes": "FliF, flagellar M-ring protein, Salmonella enterica serovar typhimurium; Homo-oligomeric ring; 33 subunits is the most common stoichiometry (~80% of particles), 34 ~15%, 32 ~5%; No tag is mentioned; The built models cover only residues 228-438 (RBM3 and beta-collar, PDB 8FTF) and Gln-125 to Gly-227 (RBM2 inner, PDB 8FTE); also called post-assembly MS-ring; FliF protomer; source: E. coli …"}}, "target": "the molecule itself", "assay": "cryo-EM structure; purified MS-rings (0.5 mg/ml) in 50 mM Tris-HCl pH 7.5, 100 mM NaCl, 0.1% LDAO on graphene oxide grids, no crosslinking; subunits counted in en-face 2D class averages without rotational symmetry averaging; 3D maps with C32, C33, C34 (RBM3), C21, C22 (RBM2 inner) and C11 symmetry", "note": "Where “and” joins values, the source holds several entries; their conditions need not be identical. Equal entries are not always repeated.", "data": [{"protein": "B1", "values": [{"measurement": "stoichiometry N", "result": "32 subunits and 33 subunits and 34 subunits"}]}]}
